The text below walks through data of patent US10711246B2, “Methods and compositions for generating epicardium cells” (UNIVERSITY HEALTH NETWORK, priority 2013, dated 2020).

In test [1] the test system is hESC-derived mesoderm. Briefly: Cardiomyocyte specification from hESC-derived day 4 mesoderm, cTnT+ cells at day 15 by flow cytometry. The conditions noted are these: for cardiomyocyte development in presence of Wnt and activin/nodal/TGFβ inhibitor: specification step, contracting cTnT/SIRPA cells at day 15; for cardiomyocyte development / specification: added to day 4 mesoderm during specification step, high levels of BMP4 or inhibitors, analysed day 15. The format is cell-based, human. On the procedure:
FIG. 1. Cardiomyocyte specification from hESCs. Scheme of the protocol used to differentiate hESCs towards the cardiomyocyte lineage highlighting the three main stages of development: 1) mesoderm induction, 2) cardiovascular specification and 3) maturation. Cells from ActivinA/BMP4-induced day 4 embryoid bodies (EBs) are plated as a monolayer on gelatin coated wells. […] Following specification, the cultures were maintained in VEGF for 9 days and then analyzed for the presence of cTnT+ cardiomyocytes by flow cytometry. FIG. 2. […] (a) Flow cytometric analyses showing the presence of the KDR+ and PDGFRα+ populations at day 4 and day 5 and the cTnT+ expression on day 15 of culture following no treatment (control), treatment with BMP4 (10 ng/ml) or the BMP4 inhibitor Noggin (400 ng/ml). (b) Total cell numbers per well at day 15 in the cultures treated as above. Error bars represent standard deviation from the mean from three experiments. FIG. 3. […] Graphical representation of flow cytometry analyses indicating the percent cTnT^+ cells in day 15 cultures generated from populations treated with the indicated amounts of BMP4 or Noggin. NT=no treatment. Bars represent standard deviation from the mean of the values from three independent experiments (N=3); *P≤0.05, **P≤0.01 when compared to no treatment. FIG. 9. […] Error bars represent standard deviation from the mean of the values from three independent experiments (N=3); *P≤0.05, **P≤0.01 when compared to the ‘no Wnt treatment’ (NT) control in context of the indicated manipulation of the BMP pathway. (b) qRT-PCR-based analyses of WT1 expression on day 15 cultures generated from untreated cells (control) or cells treated with either BMP4 (10 ng/ml) or DM (4 μM) in combination with the indicated amounts of DKK or CHIR. Values are relative to the housekeeping gene TBP. Error bars represent standard deviation from the mean of the values from three independent experiments (N=3); *P≤0.05, **P≤0.01 when compared to the ‘no Wnt treatment’ (NT) control in the context of the indicated manipulation of the BMP pathway. (c) Flow cytometry analyses showing percent cTnT+ cells and qRT-PCR analyses for WT1 expression in day 15 cultures generated from untreated cells (control) or cells treated with either BMP4 (10 ng/ml) or DM (4 μM) in combination with the indicated amounts of XAV939 (XAV). Error bars represent standard deviation from the mean of the values from three independent experiments (N=3); *P≤0.05, **P≤0.01 when compared to no Wnt treatment (see FIGS. 9a and 9b) in the context of the specific BMP treatment. (d) Flow cytometry analyses showing percent cTnT+ cells and qRT-PCR analyses of WT1 expression in day 15 cultures generated from untreated cells (control) or cells treated with either BMP4 (10 ng/ml) or DM (4 μM) in combination with the indicated amounts of IWP2. Error bars represent standard deviation from the mean of the values from three independent experiments (N=3); *P≤0.05, **P≤0.01 when compared to no Wnt treatment (see FIGS. 9a and 9b) in the context of the specific BMP treatment. Media consisting of StemPro-34 (Life Technologies) supplemented with […] penicillin/streptomycin, 2 mM L-glutamine, 1 mM ascorbic acid, and 4 3 10_4 M monothioglycerol (MTG) (Sigma). […] The Activin/Nodal/TGF-b and BMP inhibition experiments were carried out with SB-431542 (Tocris, Ellisville, Mo.) and dorsomorphin (Sigma), respectively. For experiments involving Wnt signaling, CHIR-99021 (Stemgent), XAV-939 (R&D), or IWP2(R&D) were used at the indicated concentrations. Cultures were maintained in a 5% CO2, 5% O2, 90% N2 environment for the first 10-12 days and were then transferred into a 5% CO2 air environment for the remainder of the culture period.

The subject of test [2] is hESC-derived mesoderm. In words: qRT-PCR and immunostaining of myocardial and epicardial markers (WT1, TBX18) after treatment of mesoderm. The format is cell-based, human. The note with it: for WT1 expression in BMP4-treated cells: higher concentrations of DKK1 or small molecule antagonists, CHIR. The source says: Values are relative to the housekeeping gene TBP. Error bars represent standard deviation from the mean of the values from three independent experiments (N=3); *P≤0.05, **P≤0.01 when compared to no treatment. FIG. 5. […] Error bars represent standard deviation from the mean of the values from three independent experiments (N=3); *P≤0.05, **P≤0.01 when compared to the ‘no Wnt treatment’ (NT) control in context of the indicated manipulation of the BMP pathway. (b) qRT-PCR-based analyses of WT1 expression on day 15 cultures generated from untreated cells (control) or cells treated with either BMP4 (10 ng/ml) or DM (4 μM) in combination with the indicated amounts of DKK or CHIR. Values are relative to the housekeeping gene TBP. Error bars represent standard deviation from the mean of the values from three independent experiments (N=3); *P≤0.05, **P≤0.01 when compared to the ‘no Wnt treatment’ (NT) control in the context of the indicated manipulation of the BMP pathway. (c) Flow cytometry analyses showing percent cTnT+ cells and qRT-PCR analyses for WT1 expression in day 15 cultures generated from untreated cells (control) or cells treated with either BMP4 (10 ng/ml) or DM (4 μM) in combination with the indicated amounts of XAV939 (XAV). Error bars represent standard deviation from the mean of the values from three independent experiments (N=3); *P≤0.05, **P≤0.01 when compared to no Wnt treatment (see FIGS. 9a and 9b) in the context of the specific BMP treatment. (d) Flow cytometry analyses showing percent cTnT+ cells and qRT-PCR analyses of WT1 expression in day 15 cultures generated from untreated cells (control) or cells treated with either BMP4 (10 ng/ml) or DM (4 μM) in combination with the indicated amounts of IWP2. Error bars represent standard deviation from the mean of the values from three independent experiments (N=3); *P≤0.05, **P≤0.01 when compared to no Wnt treatment (see FIGS. 9a and 9b) in the context of the specific BMP treatment. […] As a first approach to identify these cells, we analyzed them for expression of a panel of myocardial and epicardial genes over a 6-15 day time course. […] In vivo, the epicardial cells form an epithelial layer that surrounds the developing heart^18. In addition to their distinct morphology, epithelial cells in culture are characterized by their ability to form tight junctions that can be monitored by the presence of the zona occludins 1 (ZO1) protein.
(In general: In qPCR the cycle at which signal appears reflects the starting amount.)

Setting [3] is: titration during specification step, FIG. 3.
Where [4] appears, read: qRT-PCR, 6-15 day time course, cells from treated mesoderm.

Entries after “also recorded” stand apart in the source; their conditions may differ.

In the case of `Cc1c[nH]c(-c2cnc(NCCNc3ccc(C#N)cn3)nc2-c2ccc(Cl)cc2Cl)n1` [CHIR99021, reference compound], the “cardiomyocyte development in DM-treated cultures” value in the test with hESC-derived mesoderm [1] (Wnt activation in presence of dorsomorphin) is listed as “unaffected”. For the same molecule, in the test on hESC-derived mesoderm [1] (Wnt activation, no BMP pathway regulators), the “cardiomyocyte development in the endogenous BMP control” value is given as “inhibited cardiomyocyte development”. In the test on hESC-derived mesoderm [2] (qRT-PCR day 15), the “WT1 expression in DM treated cultures” value is on record as “no change in WT1 expression”, the “WT1 expression in the endogenous BMP population” value was “increased levels” and the “WT1 expression in BMP4-treated cells” value is reported as “did not impact WT1 expression”.

Regarding `Cc1ccc2nc(NC(=O)CSc3nc4c(c(=O)n3-c3ccccc3)SCC4)sc2c1` [IWP2, reference compound], the “WT1 expression in BMP4-treated cells” value in the test on hESC-derived mesoderm [2] (qRT-PCR day 15) was “decreased WT1 expression”.

On to `NC(=O)c1ccc(-c2nc(-c3ccc4c(c3)OCO4)c(-c3ccccn3)[nH]2)cc1` [SB431542, reference compound], for which, in the test on hESC-derived mesoderm [1], the “cardiomyocyte development in presence of Wnt and activin/nodal/TGFβ inhibitor” value is reported as “cardiomyocytes routinely develop”.

In the case of `Oc1nc(-c2ccc(C(F)(F)F)cc2)nc2c1CSCC2` [XAV939, reference compound], the “WT1 expression in BMP4-treated cells” value in the test with hESC-derived mesoderm [2] (qRT-PCR day 15) is listed as “decreased WT1 expression”.

B1: Bone Morphogenetic Protein 4 (protein, UniProt P12644 293-408, looked up)
Bone morphogenetic protein 4: SPKHHSQRARKKNKNCRRHSLYVDFSDVGWNDWIVAPPGYQAFYCHGDCPFPLADHLNSTNHAIVQTLVNSVNSSIPKACCVPTELSAISMLYLDEYDKVVLKNYQEMVVEGCGCR
notes: Bone Morphogenetic Protein 4, human BMP4 (R&D Systems)
Consider B1, for which the “cardiomyocyte development / specification” value with hESC-derived mesoderm [1] is recorded as “completely blocked cardiomyocyte development”. In addition, in the test with hESC-derived mesoderm [1] (setting [3]), the “concentrations that inhibited cardiomyocyte specification” value was at least 0.63 ng/mL and the “low levels at which cardiomyocyte development is achieved” value was determined as 0.31 ng/mL. The “WT1 (nuclear) by immunostaining” value in the test with hESC-derived mesoderm [2] (day 15 of culture) was “detected only in cells induced with BMP4”. Besides, in the test on hESC-derived mesoderm [2] (setting [4]), the TBX18 expression entry is reported as “predominantly” and the WT1 expression entry is “exclusively”. In the test with hESC-derived mesoderm [2] (qRT-PCR, cells from treated mesoderm), the “BNC1 and ANXA8 expression” value is on record as “highly expressed”.

B2: noggin (protein, UniProt Q13253 28-232, looked up)
Noggin: QHYLHIRPAPSDNLPLVDLIEHPDPIFDPKEKDLNETLLRSLLGGHYDPGFMATSPPEDRPGGGGGAAGGAEDLAELDQLLRQRPSGAMPSEIKGLEFSEGLAQGKKQRLSKKLRRKLQMWLWSQTFCPVLYAWNDLGSRFWPRYVKVGSCFSKRSCSVPEGMVCKPSKSVHLTVLRWRCQRRGGQRCGWIPIQYPIISECKCSC
On to B2, for which the “cardiomyocyte development / specification” value with hESC-derived mesoderm [1] was “completely blocked cardiomyocyte development; also recorded: inhibited cardiomyocyte specification”. For the same molecule, the “levels of KDR (mesoderm development)” value in the test with hESC-derived mesoderm [1] (flow cytometry after treatment of day 4 mesoderm) is “decrease the levels of KDR to some extent”. Further, the “low levels at which cardiomyocyte development is achieved” value with hESC-derived mesoderm [1] (setting [3]) was in the range of 12.5 to 200 ng/mL. Also, the “expression of panel of myocardial and epicardial genes” value with hESC-derived mesoderm [2] (qRT-PCR, 6-15 day time course) is “did not express significant levels of any of these genes”.

B3: DKK1 (protein, UniProt O94907 32-266, looked up)
Dickkopf-related protein 1: TLNSVLNSNAIKNLPPPLGGAAGHPGSAVSAAPGILYPGGNKYQTIDNYQPYPCAEDEECGTDEYCASPTRGGDAGVQICLACRKRRKRCMRHAMCCPGNYCKNGICVSSDQNHFRGEIEETITESFGNDHSTLDGYSRRTTLSSKMYHTKGQEGSVCLRSSDCASGLCCARHFWSKICKPVLKEGQVCTKHRRKGSHGLEIFQRCYCGEGLSCRIQKDHHQASNSSRLHTCQRH
B3: in the test with hESC-derived mesoderm [1], the “cardiomyocyte development in presence of Wnt and activin/nodal/TGFβ inhibitor” value is “cardiomyocytes routinely develop”.
